Test results: patent US20050026839A1 (GENERAL HOSPITAL, published 2005)
Read-outs that look alike come from different tables or passages of the source. Square brackets hold non-standard residues; d marks the D form. Ends that are not written are not given here. hArg = N=C(N)NCCCC[C@H](N)C(=O)O; Nle = CCCC[C@H](N)C(=O)O; Aib = CC(C)(N)C(=O)O

B1: [Aib^1,3,M]PTH(1-21) (peptide)
peptide: [Aib]V[Aib]EIQL[Nle]HQ[hArg]AKWLASVRRY-NH2
modifications: N-terminus assumed
SMILES: CCCC[C@H](NC(=O)[C@H](CC(C)C)NC(=O)[C@H](CCC(N)=O)NC(=O)[C@@H](NC(=O)[C@H](CCC(=O)O)NC(=O)C(C)(C)NC(=O)[C@@H](NC(=O)C(C)(C)N)C(C)C)[C@@H](C)CC)C(=O)N[C@@H](Cc1c[nH]cn1)C(=O)N[C@@H](CCC(N)=O)C(=O)N[C@@H](CCCCNC(=N)N)C(=O)N[C@@H](C)C(=O)N[C@@H](CCCCN)C(=O)N[C@@H](Cc1c[nH]c2ccccc12)C(=O)N[C@@H](CC(C)C)C(=O)N[C@@H](C)C(=O)N[C@@H](CO)C(=O)N[C@H](C(=O)N[C@@H](CCCNC(=N)N)C(=O)N[C@@H](CCCNC(=N)N)C(=O)N[C@@H](Cc1ccc(O)cc1)C(N)=O)C(C)C
notes: unlabeled peptide; also called 674 [Aib^1,3, M]PTH (1-21); 674 [Aib^1,3M]PTH(1-21)
B2: [Aib^1,3,M]PTH(1-14) (peptide)
peptide: [Aib]V[Aib]EIQLMHQ[hArg]AKW-NH2
modifications: N-terminus assumed
SMILES: CC[C@H](C)[C@H](NC(=O)[C@H](CCC(=O)O)NC(=O)C(C)(C)NC(=O)[C@@H](NC(=O)C(C)(C)N)C(C)C)C(=O)N[C@@H](CCC(N)=O)C(=O)N[C@@H](CC(C)C)C(=O)N[C@@H](CCSC)C(=O)N[C@@H](Cc1c[nH]cn1)C(=O)N[C@@H](CCC(N)=O)C(=O)N[C@@H](CCCCNC(=N)N)C(=O)N[C@@H](C)C(=O)N[C@@H](CCCCN)C(=O)N[C@@H](Cc1c[nH]c2ccccc12)C(N)=O
notes: also called 671 [Aib^1,3, M]PTH (1-14); 671 [Aib^1,3M]PTH(1-14)

Columns and labels:
[1] = target: T1, truncated human P1R deleted for residues (24-181) (hP1R-delNt) (human, UniProt Q03431 182-593); assay: cell-based or functional assay
T1 sequence (looked up): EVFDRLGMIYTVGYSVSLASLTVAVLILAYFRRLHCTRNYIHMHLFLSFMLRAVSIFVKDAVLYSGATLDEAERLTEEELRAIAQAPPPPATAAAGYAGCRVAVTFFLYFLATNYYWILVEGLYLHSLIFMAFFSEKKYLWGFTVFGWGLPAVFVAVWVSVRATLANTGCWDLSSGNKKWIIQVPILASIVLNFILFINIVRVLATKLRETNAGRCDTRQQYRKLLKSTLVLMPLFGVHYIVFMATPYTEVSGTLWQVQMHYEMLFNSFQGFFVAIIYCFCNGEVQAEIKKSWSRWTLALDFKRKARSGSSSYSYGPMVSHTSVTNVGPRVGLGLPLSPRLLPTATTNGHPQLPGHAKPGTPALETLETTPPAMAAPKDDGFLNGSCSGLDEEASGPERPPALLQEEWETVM

[2] = target: T2, wild-type human PTH/PTHrP receptor (hP1R-WT) (human, UniProt Q03431 27-593); assay: cell-based or functional assay
T2 sequence (looked up): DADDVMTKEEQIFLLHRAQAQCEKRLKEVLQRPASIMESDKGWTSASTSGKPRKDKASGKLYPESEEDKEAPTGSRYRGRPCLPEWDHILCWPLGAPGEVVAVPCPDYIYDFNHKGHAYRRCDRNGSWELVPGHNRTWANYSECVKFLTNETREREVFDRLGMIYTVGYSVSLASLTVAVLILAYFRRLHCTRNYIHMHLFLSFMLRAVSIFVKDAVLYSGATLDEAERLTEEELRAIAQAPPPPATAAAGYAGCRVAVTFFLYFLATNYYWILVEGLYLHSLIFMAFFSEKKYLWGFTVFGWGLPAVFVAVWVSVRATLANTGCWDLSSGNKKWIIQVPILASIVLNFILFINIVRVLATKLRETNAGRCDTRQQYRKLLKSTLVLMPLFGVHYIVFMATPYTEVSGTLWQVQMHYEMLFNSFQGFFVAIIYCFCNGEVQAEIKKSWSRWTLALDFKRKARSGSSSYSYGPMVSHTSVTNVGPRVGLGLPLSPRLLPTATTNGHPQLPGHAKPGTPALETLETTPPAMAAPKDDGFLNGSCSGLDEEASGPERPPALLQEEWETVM

[3] = target: T2, wild-type human PTH/PTHrP receptor …; assay: competition binding, 125I-[Aib1,3,M]PTH(1-21) tracer, COS-7 cells expressing hP1R-WT
Description: (§1) Competition Binding. Binding reactions were performed with HKRK-B28 cells or in COS-7 cells in 24-well plates. The cells were rinsed with 0.5 mL of binding buffer, and then treated successively with 100 μL binding buffer, 100 μL of binding buffer containing various amounts of unlabeled competitor ligand, and 100 μL of binding buffer containing ca. 100,000 cpm of ¹²⁵I-[M]PTH(1-21) or ¹²⁵I-[Aib^{1,3},M]PTH(1-21)} (ca. 26 fmol; final volume=300 μL). Incubations were 4 to 6 h at 4° C., at which time near equilibrium conditions were attained. Cells were then placed on ice, the binding medium was removed, and the monolayer was rinsed three times with 0.5 mL of cold binding buffer. The cells were subsequently lysed with 0.5 mL […] NaOH and counted for radioactivity. For each tracer and in each experiment, the non-specific binding was determined as the radioactivity that bound in the presence of the same unlabeled peptide at a concentration of 1 μM, and was ˜1% of total radioactivity added for each tracer. The maximum specific binding (B₀) was the total radioactivity bound in the absence of competing ligand, corrected for nonspecific binding, and for each tracer, ranged from 8% to 20% of the total radioactivity added. Nonlinear regression was used to calculate binding IC₅₀ values (see below). Scatchard transformations of homologous competition binding data derived from studies with 26 fmol of ¹²⁵I-[Aib^{1,3},M]PTH(1-21) were employed for estimations of apparent equilibrium dissociation constant (kDapps) and total number of ligand binding sites (Bₘₐₓ), assuming a single class of binding sites and equal affinities of the iodinated and non iodinated ligand.

[4] = target: T2, wild-type human PTH/PTHrP receptor …; assay: cell-based or functional assay; remark: listed apart in the source
[5] = target: T2, wild-type human PTH/PTHrP receptor …; assay: Scatchard transformation of homologous competition binding, 125I-[Aib1,3,M]PTH(1-21) tracer, COS-7 cells expressing P1R-WT
Description: The cells were subsequently lysed with 0.5 mL […] NaOH and counted for radioactivity. For each tracer and in each experiment, the non-specific binding was determined as the radioactivity that bound in the presence of the same unlabeled peptide at a concentration of 1 μM, and was ˜1% of total radioactivity added for each tracer. The maximum specific binding (B₀) was the total radioactivity bound in the absence of competing ligand, corrected for nonspecific binding, and for each tracer, ranged from 8% to 20% of the total radioactivity added. Nonlinear regression was used to calculate binding IC₅₀ values (see below). Scatchard transformations of homologous competition binding data derived from studies with 26 fmol of ¹²⁵I-[Aib^{1,3},M]PTH(1-21) were employed for estimations of apparent equilibrium dissociation constant (kDapps) and total number of ligand binding sites (Bₘₐₓ), assuming a single class of binding sites and equal affinities of the iodinated and non iodinated ligand.
To potentially improve affinity of this peptide, the paired Aib-1,3 modifications were introduced to produce [Aib^{1,3},M]PTH(1-21). […] The total specific binding observed in COS-7 cells tranfected with vector DNA alone was<2% of total radioactivity added. This radioligand, therefore, enabled competition binding experiments to be performed with both the wild-type and truncated PTH-1 receptors.

[6] = target: T1, truncated human P1R deleted for …; assay: competition binding, 125I-[Aib1,3,M]PTH(1-21) tracer, COS-7 cells expressing hP1R-delNt
Description: Stock solutions of EGTA/trypsin and antibiotics were from GIBCO; fetal bovine serum was from Hyclone Laboratories (Logan, Utah). […] All cells, in 24-well plates, were treated with fresh media and shifted to 33° C. for 12 to 24 h prior to assay.
as §1

[7] = target: T2, wild-type human PTH/PTHrP receptor …; assay: competition binding, COS-7 cells expressing P1R-WT

Row | Binder | cAMP EC50 [1] [nM] | cAMP EMax(obs.) [1] [pmole/well] | cAMP EC50 [2] [nM] | cAMP EMax(obs.) [2] [pmole/well] | IC50 [3] [nM] | cAMP EC50 [4] [nM] | cAMP EMax(obs.) [4] [pmole/well] | Kd [5] [nM] | IC50 [6] [nM] | PLC EC50 [1] [nM] | PLC EMAX(obs.) [1] [foldxbasal] | PLC EC50 [2] [nM] | PLC EMAX(obs.) [2] [foldxbasal] | fold stronger binding affinity than [M]PTH(1-14) [7] [fold]
1 | B1 | 0.38 | 240 | 0.8 | 300 | 28 | 4.3 | 284 | 17 | 27 |  |  |  |  | 
2 | B2 | 0.73 | 250 | 1.2 | 240 | 2250 | 1.1 | 278 |  | 1600 | 130 | 3.1 | 71 | 4.3 | ~10
